Data published in patent US6485937.

Target: FLAG-epitope tagged HIV tat interacting protein of 30 kDa (f-TIP30) (human (isolated from HeLa cells)) (UniProt Q9BUP3)
Test: affinity chromatography of B. mori fat bodies extract, SDS-PAGE of the unbound fraction; the filing puts this down to saturated beads

Chain of UniProt Q9BUP3 (Q9BUP3 other isoform, or with tags, fused parts or gaps limits assumed): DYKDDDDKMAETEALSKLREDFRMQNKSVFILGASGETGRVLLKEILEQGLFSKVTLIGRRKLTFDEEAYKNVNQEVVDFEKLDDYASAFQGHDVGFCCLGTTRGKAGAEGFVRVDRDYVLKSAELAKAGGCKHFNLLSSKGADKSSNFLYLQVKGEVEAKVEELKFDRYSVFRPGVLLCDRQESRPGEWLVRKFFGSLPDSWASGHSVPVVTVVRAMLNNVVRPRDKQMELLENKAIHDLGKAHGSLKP

## M2-Agarose resin (Sigma) (antibody)
  share of expressed protein remaining in the unbound fraction: > 30%
